Experimental data from patent publication US11214614B2, “LTBP complex-specific inhibitors of TGFβ and uses thereof” (Scholar Rock, Inc., priority 2019, dated 2022).

Experiments:
Assay in all cases: Octet (BLI) binding, IgG captured on AHC tips, antigen at 100 nM
huGARP proTGFβ1 = huGARP proTGFβ1 (Homo sapiens, UniProt P01137); conditions: for ForteBio IgG KD Hu GARP-proTGFβ1 (M) Avid: IgG1-agly, 1:1 fit; for ForteBio IgG KD Hu GARP-proTGFβ1 in solution (M) Avid: Table 10, same assay conditions as Table 9
Outline: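 Antibody loaded at 1 μg/mL onto anti-human Fc capture biosensors, then exposed to human GARP-proTGFβ1 at 100 nM in 1× kinetics buffer with 1000 rpm shaking. Association 3 min, dissociation 3 or 5 min; KD from 1:1 local full fit.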

huLTBP1 proTGFβ1 = huLTBP1 proTGFβ1 (Homo sapiens, UniProt P01137+Q14766); conditions: for Hu LTBP1-proTGFβ1 Kon / Hu LTBP1-proTGFβ1 Koff: Table 9, cycle 3; for Hu LTBP1-proTGFβ1 Kon / Hu LTBP1-proTGFβ1 Koff / Affinity for human LTBP1 complexed with proTGFβ1: IgG1-agly; for Hu LTBP1-proTGFβ1 Kon: 1:1 fit; for Hu LTBP1-proTGFβ1 Koff: 5-minute dissociation; for Response, binding to human LTBP-1 proTGFb1: Octet, antibody immobilized (loading sample); for Affinity for human LTBP1 complexed with proTGFβ1: Table 8, Octet
Outline: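 Antibodies were captured on anti-human Fc biosensors at 1 μg/mL (~7 nM), to a maximum response of 1 nm. Antigen complex was run at a single 100 nM in 1× kinetics buffer, shaking at 1000 rpm. Association was 3 min and dissociation 3 min (5 min in later rounds), with KD from a local, full 1:1 fit.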

huLTBP3 proTGFβ1 = huLTBP3 proTGFβ1 (Homo sapiens, UniProt P01137+Q9NS15); conditions: IgG1-agly; for Hu LTBP3-proTGFβ1 Kon / Hu LTBP3-proTGFβ1 Koff: Table 9, cycle 3; for Hu LTBP3-proTGFβ1 Koff: 5-minute dissociation; for Affinity for human LTBP3 complexed with proTGFβ1: Table 8, Octet
Outline: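 Antibodies loaded at 1 μg/mL onto anti-human Fc sensors were exposed to each TGFβ1 complex at 100 nM in kinetics buffer. Association ran 3 min; dissociation was 3 min in one protocol and 5 min in another. KD came from a 1:1 fitting model.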

[1] = Table 9, cycle 3, N.B. = non-binder under conditions of this assay
[2] = N.B. = non-binder under conditions of this assay
[3] = Table 8, P.F. = Poor Fit, N.B. = Non-binder under conditions of this assay

Sequence of huGARP proTGFβ1 (P01137 30-390): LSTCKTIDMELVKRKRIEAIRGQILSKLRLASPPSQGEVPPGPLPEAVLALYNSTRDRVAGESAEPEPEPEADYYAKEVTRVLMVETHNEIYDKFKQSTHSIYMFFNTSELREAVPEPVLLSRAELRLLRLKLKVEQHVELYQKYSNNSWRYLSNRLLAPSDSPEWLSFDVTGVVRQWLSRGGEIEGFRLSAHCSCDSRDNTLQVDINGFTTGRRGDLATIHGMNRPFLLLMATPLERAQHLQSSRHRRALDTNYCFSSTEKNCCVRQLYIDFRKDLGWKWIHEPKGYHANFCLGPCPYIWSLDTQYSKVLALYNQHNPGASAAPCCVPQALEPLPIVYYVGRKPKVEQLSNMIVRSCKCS
Sequence of huGARP proTGFβ1 (Q14392 18-627 partner limits assumed): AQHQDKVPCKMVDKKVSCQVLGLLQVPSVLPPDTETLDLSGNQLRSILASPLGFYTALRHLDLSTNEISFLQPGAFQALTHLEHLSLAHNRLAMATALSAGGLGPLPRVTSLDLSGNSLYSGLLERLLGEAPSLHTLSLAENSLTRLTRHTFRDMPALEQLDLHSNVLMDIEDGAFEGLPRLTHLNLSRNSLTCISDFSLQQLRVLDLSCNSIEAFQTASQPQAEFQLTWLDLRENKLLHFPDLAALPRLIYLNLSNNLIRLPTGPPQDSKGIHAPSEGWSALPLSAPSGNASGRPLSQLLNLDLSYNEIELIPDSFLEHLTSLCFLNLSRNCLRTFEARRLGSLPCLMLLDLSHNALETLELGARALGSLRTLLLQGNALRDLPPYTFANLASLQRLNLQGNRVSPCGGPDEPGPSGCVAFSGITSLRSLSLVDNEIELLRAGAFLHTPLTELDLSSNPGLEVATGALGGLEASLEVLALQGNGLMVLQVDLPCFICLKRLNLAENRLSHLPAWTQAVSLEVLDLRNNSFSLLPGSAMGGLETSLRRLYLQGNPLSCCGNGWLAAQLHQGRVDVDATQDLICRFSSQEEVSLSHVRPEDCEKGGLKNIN
Sequence of huLTBP1 proTGFβ1 (P01137 30-390): as the sequence (P01137 30-390) above
Sequence of huLTBP1 proTGFβ1 (Q14766 347-1721 limits assumed): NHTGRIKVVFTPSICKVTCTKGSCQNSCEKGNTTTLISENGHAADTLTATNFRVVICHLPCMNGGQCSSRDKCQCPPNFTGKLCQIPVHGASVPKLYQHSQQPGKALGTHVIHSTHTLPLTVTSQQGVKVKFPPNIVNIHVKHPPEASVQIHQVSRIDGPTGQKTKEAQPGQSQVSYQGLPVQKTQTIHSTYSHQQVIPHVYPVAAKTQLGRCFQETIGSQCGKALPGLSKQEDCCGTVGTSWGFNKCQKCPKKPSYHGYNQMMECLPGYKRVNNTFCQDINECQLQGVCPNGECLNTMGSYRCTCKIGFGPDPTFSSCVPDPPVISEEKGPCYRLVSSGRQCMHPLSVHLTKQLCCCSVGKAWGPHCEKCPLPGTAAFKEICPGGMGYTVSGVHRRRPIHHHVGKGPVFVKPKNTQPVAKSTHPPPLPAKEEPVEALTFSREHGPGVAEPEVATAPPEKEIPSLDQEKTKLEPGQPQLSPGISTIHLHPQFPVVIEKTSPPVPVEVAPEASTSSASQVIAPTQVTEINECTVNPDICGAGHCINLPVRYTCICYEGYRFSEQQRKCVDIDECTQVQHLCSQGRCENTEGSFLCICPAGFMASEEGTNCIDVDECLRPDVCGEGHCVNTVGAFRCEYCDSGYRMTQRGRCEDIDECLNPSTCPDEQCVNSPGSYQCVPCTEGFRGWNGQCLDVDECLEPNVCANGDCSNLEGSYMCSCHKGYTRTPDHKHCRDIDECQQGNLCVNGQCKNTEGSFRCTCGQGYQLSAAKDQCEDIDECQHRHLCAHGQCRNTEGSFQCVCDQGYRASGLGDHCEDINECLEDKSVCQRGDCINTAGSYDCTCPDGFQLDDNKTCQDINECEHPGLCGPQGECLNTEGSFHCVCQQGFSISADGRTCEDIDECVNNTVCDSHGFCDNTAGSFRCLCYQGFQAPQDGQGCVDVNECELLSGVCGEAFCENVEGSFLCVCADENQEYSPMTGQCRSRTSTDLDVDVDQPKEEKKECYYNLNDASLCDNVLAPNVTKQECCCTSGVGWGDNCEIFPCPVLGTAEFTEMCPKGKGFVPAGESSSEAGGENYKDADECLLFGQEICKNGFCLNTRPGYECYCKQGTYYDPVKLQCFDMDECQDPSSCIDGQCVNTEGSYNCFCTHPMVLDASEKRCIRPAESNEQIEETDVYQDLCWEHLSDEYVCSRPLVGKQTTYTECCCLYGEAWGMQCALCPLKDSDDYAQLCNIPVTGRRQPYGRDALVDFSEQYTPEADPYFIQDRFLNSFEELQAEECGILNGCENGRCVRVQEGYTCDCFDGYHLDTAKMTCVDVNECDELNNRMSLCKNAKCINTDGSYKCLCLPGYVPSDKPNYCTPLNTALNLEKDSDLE
Sequence of huLTBP3 proTGFβ1 (P01137 30-390): as the sequence (P01137 30-390) above
Sequence of huLTBP3 proTGFβ1 (Q9NS15 44-1303): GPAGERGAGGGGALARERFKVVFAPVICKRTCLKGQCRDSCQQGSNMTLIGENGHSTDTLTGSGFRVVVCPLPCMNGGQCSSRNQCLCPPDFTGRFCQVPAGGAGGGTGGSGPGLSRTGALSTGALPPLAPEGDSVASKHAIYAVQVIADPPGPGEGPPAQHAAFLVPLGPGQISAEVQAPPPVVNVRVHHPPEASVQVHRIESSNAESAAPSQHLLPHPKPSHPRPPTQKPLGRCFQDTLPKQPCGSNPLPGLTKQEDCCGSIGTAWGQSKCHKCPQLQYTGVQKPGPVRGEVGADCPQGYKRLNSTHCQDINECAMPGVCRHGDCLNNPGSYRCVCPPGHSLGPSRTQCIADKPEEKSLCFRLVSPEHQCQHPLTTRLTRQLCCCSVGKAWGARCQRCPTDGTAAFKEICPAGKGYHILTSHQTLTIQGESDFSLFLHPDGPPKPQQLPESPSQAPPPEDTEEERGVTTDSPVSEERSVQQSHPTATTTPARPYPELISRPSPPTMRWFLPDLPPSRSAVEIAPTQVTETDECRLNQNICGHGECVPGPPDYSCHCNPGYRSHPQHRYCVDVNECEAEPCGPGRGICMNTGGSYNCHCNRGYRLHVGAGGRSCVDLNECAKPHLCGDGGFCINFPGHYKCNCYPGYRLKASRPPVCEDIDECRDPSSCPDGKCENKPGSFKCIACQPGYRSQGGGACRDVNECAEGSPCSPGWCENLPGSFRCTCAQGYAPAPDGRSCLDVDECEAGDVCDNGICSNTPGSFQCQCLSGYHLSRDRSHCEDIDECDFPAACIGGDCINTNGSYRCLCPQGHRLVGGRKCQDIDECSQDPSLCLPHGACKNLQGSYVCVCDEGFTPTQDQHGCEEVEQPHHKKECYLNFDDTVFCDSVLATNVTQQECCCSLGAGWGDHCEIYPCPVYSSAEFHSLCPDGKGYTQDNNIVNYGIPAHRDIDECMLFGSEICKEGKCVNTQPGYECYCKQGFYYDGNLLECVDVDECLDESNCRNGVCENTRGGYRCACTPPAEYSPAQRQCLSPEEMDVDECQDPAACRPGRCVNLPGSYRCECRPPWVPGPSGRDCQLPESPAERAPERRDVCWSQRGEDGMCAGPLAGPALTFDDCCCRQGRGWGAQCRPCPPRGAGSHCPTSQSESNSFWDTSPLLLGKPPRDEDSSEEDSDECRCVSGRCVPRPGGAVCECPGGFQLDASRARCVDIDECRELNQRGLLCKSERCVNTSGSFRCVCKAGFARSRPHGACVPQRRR

| Molecule | ForteBio IgG KD Hu GARP-proTGFβ1 (M) Avid (huGARP proTGFβ1; [1]) | ForteBio IgG KD Hu GARP-proTGFβ1 in solution (M) Avid (huGARP proTGFβ1; [2]) | Hu LTBP1-proTGFβ1 Kon (huLTBP1 proTGFβ1) | Hu LTBP1-proTGFβ1 Koff (huLTBP1 proTGFβ1) | Hu LTBP3-proTGFβ1 Kon (huLTBP3 proTGFβ1; 1:1 fit) | Hu LTBP3-proTGFβ1 Koff (huLTBP3 proTGFβ1) | ForteBio IgG KD Hu GARP-proTGFβ1 (M) Avid (huGARP proTGFβ1; [3]) | Response, binding to human LTBP-1 proTGFb1 (huLTBP1 proTGFβ1) | Affinity for human LTBP1 complexed with proTGFβ1 (huLTBP1 proTGFβ1) | Affinity for human LTBP3 complexed with proTGFβ1 (huLTBP3 proTGFβ1) | ForteBio IgG KD Hu LTBP3-proTGFβ1 (M) Avid (huLTBP3 proTGFβ1; Table 8, 1:1 fit, P.F. = Poor Fit, N.B. = Non-binder under conditions of this assay) |
| --- | --- | --- | --- | --- | --- | --- | --- | --- | --- | --- | --- |
| SR-AB42: cycle 3 antibody, lineage SR-AB23; CDRs SEQ ID NO: 166-171; HCVR SEQ ID NO: 318, LCVR SEQ ID NO: 319 (antibody, V domains shown) VH: QVQLVESGGGVVQPGRSLRLSCAASGFTFRSYVMHWVRQAPGKGLEWVAVISHEGSLKYYADSVKGRFTISRDNSKNTLYLQMNSLRAEDTAVYYCARPRIAARRGGFGYWGQGTLVTVSS VL: NFMLTQPHSVSESPGKTVTISCTRSSGNIDNNYVQWYQQRPGSSPTTVIYEDNQRPSGVPDRFSGSIDSSSNSASLTISGLKTEDEADYYCQSYDYDTQGVVFGGGTKLTVL | N.B. | N.B. | 154000 M⁻¹ s⁻¹ | 6e-05 s⁻¹ | 232000 M⁻¹ s⁻¹ | 6e-05 s⁻¹ |  |  |  |  |  |
| SR-AB63: cycle 3 antibody, lineage SR-AB26; CDRs SEQ ID NO: 292-297; HCVR SEQ ID NO: 360, LCVR SEQ ID NO: 361 (antibody, V domains shown) VH: QLQLQESGPGLVKPSETLSLTCTVSGGSIRSSSYYWGWIRQPPGKGLEWIGSISYSATTYYNPSLKSRVTISVDTSKNQFSLKLSSVTAADTAVYYCAGDPSYDSIAGMQVWGQGTTVTVSS VL: DIQLTQSPSSLSASVGDRVTITCRASQSISSYLNWYQQKPGKAPKLLIYAASNLQSGVPSRFSGSGSGTDFTLTISSLQPEDFATYYCQQSFDWPLTFGGGTKVEIK | N.B. | N.B. | 118000 M⁻¹ s⁻¹ | 7.24e-05 s⁻¹ | 159000 M⁻¹ s⁻¹ | 7.84e-05 s⁻¹ |  |  |  |  |  |
| SR-AB22: second-round (CDR-H3 mutagenesis) antibody, lineage SR-AB14; CDRs SEQ ID NO: 108-113 (antibody, V domains shown) VH: QVQLVESGGGVVQPGRSLRLSCAASGFTFRSYVMHWVRQAPGKGLEWVAVISHEGSLKYYADSVKGRFTISRDNSKNTLYLQMNSLRAEDTAVYYCAVPRIAARRGGFGYWGQGTLVTVSS VL: NFMLTQPHSVSESPGKTVTISCTRSSGNIDNNYVQWYQQRPGSSPTTVIYEDNQRPSGVPDRFSGSIDSSSNSASLTISGLKTEDEADYYCQSYDSDNQGVVFGGGTKLTVL |  |  |  |  |  |  | P.F. | 0.4317 nm | single digit nM | single digit nM | P.F. |
| SR-AB23: second-round (CDR-H3 mutagenesis) antibody, lineage SR-AB14; CDRs SEQ ID NO: 116-121 (antibody, V domains shown) VH: QVQLVESGGGVVQPGRSLRLSCAASGFTFRSYVMHWVRQAPGKGLEWVAVISHEGSLKYYADSVKGRFTISRDNSKNTLYLQMNSLRAEDTAVYYCARPRIAARRGGFGYWGQGTLVTVSS VL: NFMLTQPHSVSESPGKTVTISCTRSSGNIDNNYVQWYQQRPGSSPTTVIYEDNQRPSGVPDRFSGSIDSSSNSASLTISGLKTEDEADYYCQSYDSDNQGVVFGGGTKLTVL |  |  |  |  |  |  | N.B. | 0.3449 nm | single digit nM | single digit nM |  |
